In publication PMC6763467, “Structural insight into glucose repression of the mannitol operon” (Scientific Reports, 2019):
Positions count from the first letter of the chain named.

B1: E. coli MtlR fused with His6-tag (ecHisMtlR), wild type (natural protein)
chain: MVDQAQDTLRPNNRLSDMQATMEQTQAFENRVLERLNAGKTVRSFLITAVELLTEAVNLLVLQVFRKDDYAVKYAVEPLLDGDGPLGDLSVRLKLIYGLGVINRQEYEDAELLMALREELNHDGNEYAFTDDEILGPFGELHCVAALPPPPQFEPADSSLYAMQIQRYQQAVRSTMVLSLTELISKISLKKAFQK
notes: Mannitol operon repressor MtlR of E. coli (cloned from genomic DNA of MG1655, K-12); ecHisMtlR is about 23 kDa with the tag; probably the whole protein (about 23 kDa with tag); Homodimer by SEC-MALS; also called wild-type His-MtlR; ecMtlR
B2: E. coli HPr labelled with the dye NT-647 (natural protein)
chain: not shown
modifications: dye NT-647 coupled by N-hydroxysuccinimide (NHS) to lysine residues
notes: Histidine phosphocarrier protein HPr of E. coli, 9 kDa; Same protein as m2, fluorescently labelled for microscale thermophoresis; also called labeled HPr; source: E. coli, overexpressed, purified (MonoQ, Superdex 75), then labelled with NT-647-NHS
B3: E. coli histidine phosphocarrier protein HPr (dephosphorylated, untagged) (natural protein)
chain: not shown
notes: Histidine phosphocarrier protein HPr of E. coli, 9 kDa; Untagged; probably the whole protein (9 kDa); also called ecHPr; source: E. coli, overexpressed, purified (MonoQ, Superdex 75); for the complex overexpressed in E. coli GI698 harboring pSP100 and co-purified with MtlR

How the values were obtained:
[1] = biological target: the molecule itself; experiment: SEC-MALS; Superdex 200 increase 5/150 GL, binding buffer as mobile phase, 0.2 ml/min; HisMtlR alone (40 μg) and in complex with HPr (60 μg); concentration by refractive index
His-MtlR(E108S) [2] = biological target: T1, His-MtlR(E108S) (E. coli, UniProt P0AF10 1-195, E108S); experiment: MST; Monolith NT.115; serial dilutions of MtlR variants mixed 1:1 with NT-647-labelled HPr; 20 mM Tris-HCl pH 7.5, 50 mM NaCl, 2 mM β-mercaptoethanol, 0.05% BSA, 0.05% Tween-20, 5% glycerol; conditions: both partners purified
T1 construct: Mannitol operon repressor MtlR of E. coli, made by site-directed mutagenesis of pET-HisMtlR; also called E108S single mutant
T1 sequence: B1 chain with E108S

His-MtlR(E140S) [3] = biological target: T2, His-MtlR(E140S) (E. coli, UniProt P0AF10 1-195, E140S); experiment: as above; conditions: both partners purified
T2 construct: Mannitol operon repressor MtlR of E. coli, made by site-directed mutagenesis of pET-HisMtlR; also called E140S single mutant
T2 sequence: B1 chain with E140S

[4] = biological target: B1; experiment: as above; conditions: both partners purified
[5] = biological target: B1; experiment: SEC; gel filtration chromatography of purified MtlR and HPr from E. coli and V. vulnificus (Supplementary Fig. 4); conditions: both partners purified
His-MtlR(E140S) [6] = biological target: T2, His-MtlR(E140S); experiment: pull-down; His-MtlR (200 μg) mixed with HPr (200 μg) in 20 mM Tris-HCl pH 7.5, 50 mM NaCl, 2 mM β-mercaptoethanol, 5% glycerol; Talon metal affinity chromatography, 3 washes with 10 mM imidazole, elution with 150 mM imidazole; SDS-PAGE, Coomassie; conditions: both partners purified
His-MtlR(A115W) = biological target: T3, His-MtlR(A115W) (E. coli, UniProt P0AF10 1-195, A115W); experiment: as above; conditions: both partners purified
T3 construct: Mannitol operon repressor MtlR of E. coli, made by site-directed mutagenesis of pET-HisMtlR; also called A115W mutant of His-tagged ecMtlR
T3 sequence: B1 chain with A115W

His-MtlR(L112W) = biological target: T4, His-MtlR(L112W) (E. coli, UniProt P0AF10 1-195, Leu112 was mutated to Trp); experiment: as above; conditions: both partners purified
T4 construct: Mannitol operon repressor MtlR of E. coli, made by site-directed mutagenesis of pET-HisMtlR; also called Leu112 mutated to Trp
T4 sequence: B1 chain with L112W

His-MtlR(E108S) [7] = biological target: T1, His-MtlR(E108S); experiment: pull-down; His-MtlR (200 μg) mixed with 20 μl of EI-overproducing cell lysate, 200 μg of HPr, 2 mM MgCl2 and 50 μl of Talon resin, in the absence or presence of 2 mM PEP; SDS-PAGE, Coomassie; conditions: both partners purified

B1
stoichiometry N [1]: 2

B2
Kd (His-MtlR(E108S) [2]): 1420 ± 80 nM
Kd (His-MtlR(E140S) [3]): 1530 ± 110 nM
Kd [4]: ~21 nM

B3
binding result [5]: binds
binding result (His-MtlR(E140S) [6]): binds
binding result (His-MtlR(A115W)): binds
binding result (His-MtlR(L112W)): binds
binding result (His-MtlR(E108S) [7]): binds
